From publication PMC1308866, “Inhibition of HIV derived lentiviral production by TAR RNA binding domain of TAT protein”

Columns and labels:
Assay in all cases: EMSA; 0.25 nmol RNA in 10 ul; peptide:RNA molar ratio 0-1
Conditions in all cases: hairpin
Tat-P = target: T1, Tat-P (HIV, UniProt P69698)
T1 chain: YGRKKRRQRRR

Con-P2 = target: T2, Con-P2
T2 chain: ARPLEHGSDKAT

Con-P1 = target: T3, Con-P1
T3 chain: RRQRRTSKLMKR

GCCAGAUCUGAGCCUGGGAGCUCUCUGGC (structured_RNA) [TAR RNA 29mer]
binding result (Tat-P): binds
binding result (Con-P2): no binding
binding result (Con-P1): no binding
